Results as given in patent US10472652B2, “Chemical engineering processes and apparatus for the synthesis of compounds” (TEEWINOT T[…], priority 2013, dated 2019).

Experiments:
Type in all cases: biochemical
THCA synthase [1] = molecular target: T1, THCA synthase (Cannabis sativa, UniProt Q8GTB6); test: pH study: ratio of THCA to CBCA produced when THCA synthase is contacted with CBGA
T1 construct: His-tag (C); made in house; host or cells: Pichia pastoris (PichiaPink, pPink-HC vector), secreted into the medium; cell-free T3 supernatant used
T1 sequence (Q8GTB6 29-545): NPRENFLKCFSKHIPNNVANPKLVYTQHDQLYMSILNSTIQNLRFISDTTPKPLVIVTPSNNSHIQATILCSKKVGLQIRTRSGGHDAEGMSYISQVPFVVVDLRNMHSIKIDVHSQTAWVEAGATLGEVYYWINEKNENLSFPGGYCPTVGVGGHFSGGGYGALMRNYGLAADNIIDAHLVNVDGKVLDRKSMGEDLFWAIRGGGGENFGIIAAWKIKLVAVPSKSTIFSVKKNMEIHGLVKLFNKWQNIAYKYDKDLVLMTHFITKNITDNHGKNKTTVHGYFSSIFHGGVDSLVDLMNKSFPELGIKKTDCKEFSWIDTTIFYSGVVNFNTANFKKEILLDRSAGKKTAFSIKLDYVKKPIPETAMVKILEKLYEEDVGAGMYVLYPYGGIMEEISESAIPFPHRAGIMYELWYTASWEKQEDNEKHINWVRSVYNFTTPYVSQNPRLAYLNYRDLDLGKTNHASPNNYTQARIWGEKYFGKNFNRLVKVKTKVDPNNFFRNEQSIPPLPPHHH
Protocol: Table 3 illustrates the results of a pH study that was aimed at identifying the effect of pH on product ratio, namely, the ratio of THCA to CBCA compounds produced when THCA synthase is contacted with CBGA as substrate. The pH of the reaction mixture in this study ranged from a pH of 4.0 to 8.0.
In fact, THCA is the major product when catalysis is carried out at a pH of 4.0. Increasing the pH of the reaction mixture altered the product distribution ratio with approximately 30% CBCA being produced as product at a pH of 5.0 and around […] CBCA being produced as product at a pH value of 6.0. A further increase in pH of the reaction mixture, such as an increase of the pH of the reaction mixture to a pH of 7.0 gave CBCA exclusively as the product of THCA synthase catalyzed conversion of CBGA. Any further increases in pH, moreover, reduced or eliminated catalytic activity of THCA synthase, with no product observed for a reaction mixture at a pH of 8.0.

THCA synthase [2] = molecular target: T1, THCA synthase; test: effect of concentration of non-aqueous solvent (DMSO) on THCA synthase catalytic rate and THCA:CBCA product ratio
Protocol: Accordingly, the effects of temperature, pH, solvent, ionic strength and incubation times on the distribution ratio of THCA to CBCA products were studied. In one embodiment, the effect of solvent on product distribution ratio was evaluated. Cannabinoids are lipohilic in nature and are poorly solubilized in aqueous solvents. The poor solubility of cannabinoids in aqueous solvent has prevented the development of ex-vivo enzyme catalyzed methodologies for the synthesis of cannabinoids and cannabinoid analogs.
The catalytic rate […] slightly as concentration of the non-aqueous solvent is increased. Thus, 20% DMSO gave the highest catalytic rate, approximately 2.5-fold faster than catalysis in buffer alone. Table 1 illustrates the effect of concentration of non-aqueous solvent on the rate of catalytic activity.
As further illustrated in this table, the concentration of non-aqueous solvent can alter the ratio of THCA to CBCA produced as product. Thus, greater levels of THCA are obtained when the concentration of DMSO in buffer is less that 20%, with a THCA:CBCA distribution ratio of 10:1 observed when 10% DMSO is used as the solvent.

THCA synthase [3] = molecular target: T1, THCA synthase; test: effect of detergent SDS on THCA synthase conversion of CBGA; conditions: SDS added to 100 mM citrate buffer containing cyclodextrin
Protocol: In contrast, addition of SDS to 100 mM citrate buffer containing cyclodextrin destroyed THCA synthases ability to catalyze reaction. Only 8% of the substrate was converted to product under these reaction conditions with the formation of THCA being favored as product under these reaction conditions.

B1: THCA synthase: recombinant His-tagged tetrahydrocannabinolic acid synthase secreted by transformed Pichia pastoris yeast cells (protein, UniProt Q8GTB6 29-545, looked up)
Tetrahydrocannabinolic acid …: NPRENFLKCFSKHIPNNVANPKLVYTQHDQLYMSILNSTIQNLRFISDTTPKPLVIVTPSNNSHIQATILCSKKVGLQIRTRSGGHDAEGMSYISQVPFVVVDLRNMHSIKIDVHSQTAWVEAGATLGEVYYWINEKNENLSFPGGYCPTVGVGGHFSGGGYGALMRNYGLAADNIIDAHLVNVDGKVLDRKSMGEDLFWAIRGGGGENFGIIAAWKIKLVAVPSKSTIFSVKKNMEIHGLVKLFNKWQNIAYKYDKDLVLMTHFITKNITDNHGKNKTTVHGYFSSIFHGGVDSLVDLMNKSFPELGIKKTDCKEFSWIDTTIFYSGVVNFNTANFKKEILLDRSAGKKTAFSIKLDYVKKPIPETAMVKILEKLYEEDVGAGMYVLYPYGGIMEEISESAIPFPHRAGIMYELWYTASWEKQEDNEKHINWVRSVYNFTTPYVSQNPRLAYLNYRDLDLGKTNHASPNNYTQARIWGEKYFGKNFNRLVKVKTKVDPNNFFRNEQSIPPLPPHHH
modifications: His tag
notes: recombinant His-tagged tetrahydrocannabinolic acid synthase secreted by transformed Pichia pastoris yeast cells
CBCA (share of product) (THCA synthase [1]; pH 4, substrate CBGA): Trace | THCA (share of product) (THCA synthase [1]; pH 4, substrate CBGA): 100% | THCA (share of product) (THCA synthase [1]; pH 5, substrate CBGA): 70% | THCA (share of product) (THCA synthase [1]; pH 6, substrate CBGA): 85% | CBCA (share of product) (THCA synthase [1]; pH 7, substrate CBGA): 100% | THCA (share of product) (THCA synthase [1]; pH 7, substrate CBGA): 0% | CBCA (share of product) (THCA synthase [1]; pH 8, substrate CBGA): 0% | THCA (share of product) (THCA synthase [1]; pH 8, substrate CBGA): 0% | FASTER (catalytic rate relative to buffer alone) (THCA synthase [2]; DMSO 0%): 1X | FASTER (catalytic rate relative to buffer alone) (THCA synthase [2]; DMSO 10%): 1.2X | FASTER (catalytic rate relative to buffer alone) (THCA synthase [2]; DMSO 30%): 0.3X | substrate converted to product (THCA synthase [3]): 8%
